Measurements as given in patent US12467929.

Tests used:
[1] = biological target: recombinant UBE3A protein (Homo sapiens (Human)) (UniProt Q05086); test: 2-step Simoa; capture GTX; UBE3A 10 ng/ml
[2] = biological target: recombinant UBE3A protein (Homo sapiens (Human)) (UniProt Q05086); test: 2-step Simoa; capture Novus; UBE3A 1 ng/ml
[3] = biological target: recombinant UBE3A protein (Homo sapiens (Human)) (UniProt Q05086); test: 2-step Simoa; capture Novus; UBE3A 0.1 ng/ml
[4] = biological target: recombinant UBE3A protein (Homo sapiens (Human)) (UniProt Q05086); test: 3-step Simoa; capture GTX; UBE3A 10 ng/ml
[5] = biological target: recombinant UBE3A protein (Homo sapiens (Human)) (UniProt Q05086); test: 3-step Simoa; capture GTX; UBE3A 1 ng/ml
[6] = biological target: recombinant UBE3A protein (Homo sapiens (Human)) (UniProt Q05086); test: 2-step Simoa; capture Novus; UBE3A 0.01 ng/ml
[7] = biological target: recombinant UBE3A protein (Homo sapiens (Human)) (UniProt Q05086); test: 3-step Simoa; capture MS 2F6; UBE3A 1 ng/ml
[8] = biological target: recombinant UBE3A protein (Homo sapiens (Human)) (UniProt Q05086); test: 2-step Simoa; capture MS 3E5; UBE3A 1 ng/ml
[9] = biological target: recombinant UBE3A protein (Homo sapiens (Human)) (UniProt Q05086); test: 3-step Simoa; capture MS 2F6; UBE3A 10 ng/ml
[10] = biological target: recombinant UBE3A protein (Homo sapiens (Human)) (UniProt Q05086); test: 3-step Simoa; capture Novus; UBE3A 0.01 ng/ml
[11] = biological target: recombinant UBE3A protein (Homo sapiens (Human)) (UniProt Q05086); test: 3-step Simoa; capture GTX; UBE3A 0.01 ng/ml
[12] = biological target: recombinant UBE3A protein (Homo sapiens (Human)) (UniProt Q05086); test: 3-step Simoa; capture Novus; UBE3A 10 ng/ml
[13] = biological target: recombinant UBE3A protein (Homo sapiens (Human)) (UniProt Q05086); test: 3-step Simoa; capture Novus; UBE3A 1 ng/ml
[14] = biological target: recombinant UBE3A protein (Homo sapiens (Human)) (UniProt Q05086); test: 2-step Simoa; capture MS 2F6; UBE3A 0.01 ng/ml
[15] = biological target: recombinant UBE3A protein (Homo sapiens (Human)) (UniProt Q05086); test: 3-step Simoa; capture GTX; UBE3A 0.1 ng/ml
[16] = biological target: recombinant UBE3A protein (Homo sapiens (Human)) (UniProt Q05086); test: 2-step Simoa; capture Novus; UBE3A 10 ng/ml
[17] = biological target: recombinant UBE3A protein (Homo sapiens (Human)) (UniProt Q05086); test: 2-step Simoa; capture MS 2F6; UBE3A 10 ng/ml
[18] = biological target: recombinant UBE3A protein (Homo sapiens (Human)) (UniProt Q05086); test: 2-step Simoa; capture GTX; UBE3A 0.01 ng/ml
[19] = biological target: recombinant UBE3A protein (Homo sapiens (Human)) (UniProt Q05086); test: 3-step Simoa; capture Novus; UBE3A 0.1 ng/ml
[20] = biological target: recombinant UBE3A protein (Homo sapiens (Human)) (UniProt Q05086); test: 3-step Simoa; capture MS 2F6; UBE3A 0.1 ng/ml
[21] = biological target: recombinant UBE3A protein (Homo sapiens (Human)) (UniProt Q05086); test: 2-step Simoa; capture MS 2F6; UBE3A 0.1 ng/ml
[22] = biological target: recombinant UBE3A protein (Homo sapiens (Human)) (UniProt Q05086); test: 2-step Simoa; capture GTX; UBE3A 1 ng/ml
[23] = biological target: recombinant UBE3A protein (Homo sapiens (Human)) (UniProt Q05086); test: 2-step Simoa; capture MS 2F6; UBE3A 1 ng/ml

UniProt Q05086, sequence (Q05086 whole entry): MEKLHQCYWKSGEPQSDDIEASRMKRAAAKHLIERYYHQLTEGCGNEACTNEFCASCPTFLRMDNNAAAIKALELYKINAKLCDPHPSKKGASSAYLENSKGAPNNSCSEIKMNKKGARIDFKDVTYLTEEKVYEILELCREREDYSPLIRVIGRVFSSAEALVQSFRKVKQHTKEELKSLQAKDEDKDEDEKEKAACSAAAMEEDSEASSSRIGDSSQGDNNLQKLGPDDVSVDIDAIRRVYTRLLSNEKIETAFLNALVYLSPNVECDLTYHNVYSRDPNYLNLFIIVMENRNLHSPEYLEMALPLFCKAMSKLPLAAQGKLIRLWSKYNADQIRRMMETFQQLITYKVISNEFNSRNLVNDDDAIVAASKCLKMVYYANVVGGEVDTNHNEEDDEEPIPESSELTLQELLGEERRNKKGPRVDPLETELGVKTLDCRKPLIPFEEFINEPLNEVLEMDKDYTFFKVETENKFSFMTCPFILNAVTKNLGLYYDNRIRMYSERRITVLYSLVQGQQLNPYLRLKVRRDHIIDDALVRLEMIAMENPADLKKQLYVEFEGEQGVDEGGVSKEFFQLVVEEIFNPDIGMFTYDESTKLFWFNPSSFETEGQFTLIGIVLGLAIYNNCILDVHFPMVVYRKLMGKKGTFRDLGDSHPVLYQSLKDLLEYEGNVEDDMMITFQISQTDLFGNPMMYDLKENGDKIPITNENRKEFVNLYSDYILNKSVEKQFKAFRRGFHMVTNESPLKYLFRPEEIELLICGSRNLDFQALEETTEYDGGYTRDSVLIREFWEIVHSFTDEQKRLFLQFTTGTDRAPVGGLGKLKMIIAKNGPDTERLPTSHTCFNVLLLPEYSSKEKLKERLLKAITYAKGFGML

Substance: NB500-240 (Novus) (antibody)
- AEB1 [1]: 0.126
- AEB2 [1]: 0.13
- Ave AEB [1]: 0.128
- Signal to Background [1]: 17.3
- AEB1 [2]: 0.0174
- AEB2 [2]: 0.0179
- Ave AEB [2]: 0.0177
- Signal to Background [2]: 1.06
- AEB1 [3]: 0.0167
- AEB2 [3]: 0.0132
- Ave AEB [3]: 0.0149
- Signal to Background [3]: 0.9
- AEB1 [4]: 0.0356
- AEB2 [4]: 0.0426
- Ave AEB [4]: 0.0391
- Signal to Background [4]: 6.42
- AEB1 [5]: 0.0097
- AEB2 [5]: 0.0091
- Ave AEB [5]: 0.0094
- Signal to Background [5]: 1.54
- AEB1 [6]: 0.0255
- AEB2 [6]: 0.0175
- Ave AEB [6]: 0.0215
- Signal to Background [6]: 1.29
- AEB1 [7]: 0.0095
- AEB2 [7]: 0.009
- Ave AEB [7]: 0.0092
- Signal to Background [7]: 1.06
- AEB1 [8]: 0.0227
- AEB2 [8]: 0.0226
- Ave AEB [8]: 0.0226
- Signal to Background [8]: 3.04
- AEB1 [9]: 0.0153
- AEB2 [9]: 0.0116
- Ave AEB [9]: 0.0134
- Signal to Background [9]: 1.54
- AEB1 [10]: 0.011
- AEB2 [10]: 0.0112
- Ave AEB [10]: 0.0111
- Signal to Background [10]: 1.06
- AEB1 [11]: 0.0064
- AEB2 [11]: 0.0053
- Ave AEB [11]: 0.0059
- Signal to Background [11]: 0.96
- AEB1 [12]: 0.0168
- AEB2 [12]: 0.0179
- Ave AEB [12]: 0.0173
- Signal to Background [12]: 1.65
- AEB1 [13]: 0.0125
- AEB2 [13]: 0.0145
- Ave AEB [13]: 0.0135
- Signal to Background [13]: 1.29
- AEB1 [14]: 0.0183
- AEB2 [14]: 0.0162
- Ave AEB [14]: 0.0172
- Signal to Background [14]: 1.05
- AEB1 [15]: 0.005
- AEB2 [15]: 0.0068
- Ave AEB [15]: 0.0059
- Signal to Background [15]: 0.97
- AEB1 [16]: 0.0441
- AEB2 [16]: 0.0461
- Ave AEB [16]: 0.0451
- Signal to Background [16]: 2.71
- AEB1 [17]: 0.0437
- AEB2 [17]: 0.0449
- Ave AEB [17]: 0.0443
- Signal to Background [17]: 2.7
- AEB1 [18]: 0.0082
- AEB2 [18]: 0.0072
- Ave AEB [18]: 0.0077
- Signal to Background [18]: 1.04
- AEB1 [19]: 0.014
- AEB2 [19]: 0.0114
- Ave AEB [19]: 0.0127
- Signal to Background [19]: 1.21
- AEB1 [20]: 0.0107
- AEB2 [20]: 0.0084
- Ave AEB [20]: 0.0095
- Signal to Background [20]: 1.1
- AEB1 [21]: 0.0164
- AEB2 [21]: 0.0185
- Ave AEB [21]: 0.0175
- Signal to Background [21]: 1.06
- AEB1 [22]: 0.0247
- AEB2 [22]: 0.0237
- Ave AEB [22]: 0.0242
- Signal to Background [22]: 3.26
- AEB1 [23]: 0.0212
- AEB2 [23]: 0.0206
- Ave AEB [23]: 0.0209
- Signal to Background [23]: 1.27
